Several values for one entry are separate records, joined by “and”; a condition that tells them apart may be missing. Identical values can stand only once. Values belong to the substance of their own block, whether it stands above or below them.
Legend:
Assay in all cases: AUC
[1] = biological target: TDP-43 CTD S→E S273C, disulfide cross-linked dimer (human)
[2] = biological target: TDP-43 CTD S→E S305C, disulfide cross-linked dimer (human)
[3] = biological target: TDP-43 CTD S→E S317C, disulfide cross-linked dimer (human)

fraction of tetramer [1]: < 1%
Substance: TDP-43 CTD S→E S273C, disulfide cross-linked dimer (domain or fragment)

Kd dimer-tetramer [2]: 58 µM
Kd tetramer-octamer [2]: 4.7 µM
stoichiometry N [2]: 4 and 8
Substance: TDP-43 CTD S→E S305C, disulfide cross-linked dimer (domain or fragment)

Kd [3]: 46 µM
stoichiometry N [3]: 4
Substance: TDP-43 CTD S→E S317C, disulfide cross-linked dimer (domain or fragment)
